Results: US20200062856A1 (XDCEXPLORER SHANGHAI, published 2020)
Numbering of substitutions follows the chain as printed. Read-outs that look alike come from different tables or passages of the source. Each block holds one binder with its values, some of them ahead of it.

Tests used:
human TPBG-hFc protein = target: T1, human TPBG-hFc protein (human, UniProt Q13641 32-355); test: ELISA, coated human TPBG-hFc
T1 construct: range 32-355; Expressed in HEK293 cells, purified on protein A; also called immunogen A; hFc tagged TPBG protein; not shown: human IgG Fc fragment of the pCpC vector
T1 sequence (looked up): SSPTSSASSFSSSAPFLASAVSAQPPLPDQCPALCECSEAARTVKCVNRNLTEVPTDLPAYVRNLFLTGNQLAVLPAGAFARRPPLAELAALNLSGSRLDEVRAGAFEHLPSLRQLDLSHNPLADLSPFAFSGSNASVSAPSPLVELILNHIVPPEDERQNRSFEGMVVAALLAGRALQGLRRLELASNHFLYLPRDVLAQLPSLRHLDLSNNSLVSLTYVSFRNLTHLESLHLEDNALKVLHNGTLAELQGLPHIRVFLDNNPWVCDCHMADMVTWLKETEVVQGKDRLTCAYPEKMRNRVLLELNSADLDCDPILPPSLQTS
Procedure: The purified human TPBG-hFc obtained from step (1) diluting with PBS to a final concentration of 1.0 μg/mL was aliquoted into a 96-well ELISA plate at 100 μL per well, and sealed with a parafilm and incubated at 4° C. overnight. The plate was washed twice with plate washing buffer (PBS containing 0.01% (v/v) Tween 20), and blocked with blocking buffer (PBS containing 0.01% (v/v) Tween 20 and 1% (w/w) BSA) at room temperature for 2 h. The blocking buffer was discarded, and […] per well of the purified antibody TPBG was added. After incubating at 37° C. for 2 h, the plate was washed for three times with plate washing buffer (PBS containing 0.01% (v/v) Tween 20). HRP (horseradish peroxidase)-labeled secondary antibody (purchased from Sigma) was added and incubated at 37° C. for 2 h, and the plate was washed for three times using plate washing buffer (PBS containing 0.01% (v/v) Tween 20). 100 μL of TMB substrate was aliquoted into each well, incubated at room temperature for 30 min, and 100 μL of stop buffer (1.0 N HCl) per well was subsequently added. A_{450 nm} values were read using the ELISA plate reader (SpectraMax 384plus purchased from Molecular Device), and the results were shown in Table 5. […] In Table 5 the IgG control herein is a mice IgG control, the data in the Table are OD_{450 nm} values, and Blank represents the OD_{450 nm} value of PBS buffer in the plate.
The purified humanized TPBG antibody obtained from Embodiment 1 was reacted with human TPBG-hFc, for the method, see (5) Identification of lead antibody in Embodiment 1. The EC50 in Table 11 and Table 12 are calculated according to the OD450 nm value of the h12B12 variants and the h28D4 variants, respectively. […] FIGS. 7A and 7B are the binding reactions of purified humanized h12B12 variants to human TBPG-hFc protein, and FIGS. 8A and 8B are the binding reactions of the purified humanized h28D4 variants to human TBPG-hFc protein.

[1] = target: T2, human TPBG protein, full-length, on the cell surface (human, UniProt Q13641 32-420); test: FACS on CHOK1-hTPBG cells
T2 construct: whole, on cells; Transfected HEK293 (293F-hTPBG clones) and CHO-k1 (CHOk1-hTPBG 3A2F1) cells; also used here for endogenous TPBG on the TPBG-positive tumour lines NCI-H1568, NCI-H1975 and MDA-MB-468 in the killing assays; also called hTPBG; 5T4
T2 sequence (looked up): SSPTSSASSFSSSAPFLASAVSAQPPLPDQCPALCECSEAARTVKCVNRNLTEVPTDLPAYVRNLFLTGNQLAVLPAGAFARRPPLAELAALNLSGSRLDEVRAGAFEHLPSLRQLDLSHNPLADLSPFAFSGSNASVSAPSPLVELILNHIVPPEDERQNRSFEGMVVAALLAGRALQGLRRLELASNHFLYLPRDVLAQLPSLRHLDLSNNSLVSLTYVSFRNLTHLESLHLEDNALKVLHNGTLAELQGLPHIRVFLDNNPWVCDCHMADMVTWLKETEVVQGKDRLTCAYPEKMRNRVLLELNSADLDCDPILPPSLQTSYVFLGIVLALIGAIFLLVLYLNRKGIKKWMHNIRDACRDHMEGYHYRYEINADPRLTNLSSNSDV

[2] = target: T3, cynomolgus TPBG protein, full-length, on the cell surface (cynomolgus, UniProt Q4R8Y9 35-420); test: FACS on CHOK1-cTPBG cells
T3 construct: whole, on cells; also called cTPBG; CHOk1-cTPBG
T3 sequence (looked up): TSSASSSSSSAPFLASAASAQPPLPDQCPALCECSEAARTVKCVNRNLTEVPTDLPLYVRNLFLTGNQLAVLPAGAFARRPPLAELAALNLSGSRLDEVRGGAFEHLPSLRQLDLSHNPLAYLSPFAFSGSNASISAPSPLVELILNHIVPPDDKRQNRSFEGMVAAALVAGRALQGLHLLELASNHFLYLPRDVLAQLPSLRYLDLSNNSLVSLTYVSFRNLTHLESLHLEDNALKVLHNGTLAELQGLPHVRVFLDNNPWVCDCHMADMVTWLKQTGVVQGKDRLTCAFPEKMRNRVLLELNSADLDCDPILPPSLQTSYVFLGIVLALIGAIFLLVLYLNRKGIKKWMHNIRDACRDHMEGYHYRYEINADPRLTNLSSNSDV

[3] = target: T4, human TPBG antigen immobilized on a CM5 chip (human, UniProt Q13641 32-355, limits assumed); test: SPR (Biacore), human TPBG antigen immobilized on CM5 chip
T4 sequence (looked up): T1 sequence (looked up)
Procedure: To assess the binding specificity and affinity of the humanized anti-TPBG antibody, Biacore analysis was performed using human TPBG antigen immobilized on a CM5 chip. Biacore technique utilizes the change in the refractive index of surface layer after antibody binding to the TPBG antigen immobilized on the surface layer. The binding was determined by surface plasmon resonance (SPR) through detecting the laser refracted from the surface. Non-specific and specific interactions were distinguished by analysis of signal kinetics binding rate and dissociation rate. Chimeric antibodies 12B12 and 28D4 were used as controls.

[4] = target: T5, mouse TPBG protein, full-length, on the cell surface (mouse, UniProt Q9Z0L0 32-426); test: FACS on CHO-k1 cells with surface-expressed mouse TPBG, fluorescent secondary antibody, mean fluorescence intensity
T5 construct: whole, on cells; also called mTPBG; CHOk1-mTPBG
T5 sequence (looked up): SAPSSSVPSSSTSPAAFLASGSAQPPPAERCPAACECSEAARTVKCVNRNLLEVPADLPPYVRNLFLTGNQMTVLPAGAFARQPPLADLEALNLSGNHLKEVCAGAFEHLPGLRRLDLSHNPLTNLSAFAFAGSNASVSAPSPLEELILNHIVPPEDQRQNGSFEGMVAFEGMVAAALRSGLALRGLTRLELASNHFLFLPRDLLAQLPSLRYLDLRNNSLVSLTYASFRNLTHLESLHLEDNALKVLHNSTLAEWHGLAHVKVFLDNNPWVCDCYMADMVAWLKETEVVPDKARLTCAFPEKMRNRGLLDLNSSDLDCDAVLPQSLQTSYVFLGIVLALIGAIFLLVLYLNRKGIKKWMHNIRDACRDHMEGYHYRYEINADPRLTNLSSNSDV

[5] = target: T2, human TPBG protein, full-length, on the …; test: cell-based or functional assay
[6] = target: T2, human TPBG protein, full-length, on the …; test: cell-based or functional assay; remark: listed apart in the source

EC50 (human TPBG-hFc protein): 0.137 nM
EC50 [1]: 0.33 nM
EC50 [2]: 0.67 nM
Kd [3]: 0.0102 nM
koff [3]: 1.64e-05 s⁻¹
kon [3]: 1.61e+06 M⁻¹ s⁻¹
binding result [4]: no binding (tested: 100 nM)
B1: Chimeric antibody 12B12 (antibody, V domains shown)
VH: DVQLVESGGGLVQPGGSRKLSCAASGFTFSNFGMHWVRQAPEKGLEWVAYISSGSTSFYYADTVKGRFTISRDNPKNTLFLQMTSLRSEDTAMYYCSRTNSLLRGFFDAWGAGTTVTVSS
VL: DIVLTQSPASLAVSLGQRATISCRASQSVSSSSYTYLHWYQQKPGQPPKLLIKSASNLESGVPARFSGTGSGTDFTLNIHPVEEEDTATYYCQHSWEIPLTFGAGTKLELK
notes: Mouse variable domains on human IgG1 heavy and human kappa light constant regions; also called c12B12; TPBG chimeric antibody 12B12

B2: Humanized Antibody 12B12-12-MMAF (antibody, V domains shown)
VH: EVQLVESGGGLVQPGGSLRLSCAASGFTFSNFGMHWVRQAPGKGLEWVSYISSGSTSFYYADTVKGRFTISRDNAKNSLYLQMNSLRDEDTAVYYCARTNSLLRGFFDAWGQGTTVTVSS
VL: DIVLTQTPLSLSVTPGQPASISCRASQSVSSSSYTYLHWYLQKPGQPPQLLIKSASNLESGVPDRFSGSGSGTDFTLKISRVEAEDVGVYYCQHSWEIPLTFGQGTKLEIK
modifications: MC-MMAF on cysteines reduced with TCEP (sites not given), DAR 3.0-5.0 per antibody
IC50 of cell killing, MDA-MB-468 cells (CellTiter-Glo, 5 days) [5]: 0.06 nM
IC50 of cell killing, NCI-H1568 cells (CellTiter-Glo, 5 days) [5]: 0.05 nM
IC50 of cell killing, NCI-H1975 cells (CellTiter-Glo, 5 days) [5]: 0.13 nM
IC50 of cell killing, NCI-H1568 cells (CellTiter-Glo, 5 days) [6]: 0.066 nM

EC50 (human TPBG-hFc protein): 0.206 nM
EC50 [1]: 0.33 nM
EC50 [2]: 10.3 nM
Kd [3]: 0.0186 nM
koff [3]: 2.29e-05 s⁻¹
kon [3]: 1.23e+06 M⁻¹ s⁻¹
binding result [4]: no binding (tested: 100 nM)
B3: Humanized antibody 12B12-12 (antibody, V domains shown)
VH: B2 VH
VL: B2 VL
notes: also called h12B12-12

EC50 (human TPBG-hFc protein): 0.193 nM
EC50 [1]: 0.37 nM
EC50 [2]: 0.87 nM
Kd [3]: < 0.00566 nM
koff [3]: < 1e-05 s⁻¹
kon [3]: 1.77e+06 M⁻¹ s⁻¹
binding result [4]: no binding (tested: 100 nM)
B4: Humanized antibody 12B12-15 (antibody, V domains shown)
VH: B2 VH with L11V, G16R, S49A, A75S, S78T, D88A
VL: B2 VL
notes: also called h12B12-15
